{"source": "paper PMC5382683", "about": "“Identified of a novel cis-element regulating the alternative splicing of LcDREB2”", "molecular_target": "T1, RSZp21b (Oryza sativa, UniProt Q6K4N0 1-185)", "T1 sequence": "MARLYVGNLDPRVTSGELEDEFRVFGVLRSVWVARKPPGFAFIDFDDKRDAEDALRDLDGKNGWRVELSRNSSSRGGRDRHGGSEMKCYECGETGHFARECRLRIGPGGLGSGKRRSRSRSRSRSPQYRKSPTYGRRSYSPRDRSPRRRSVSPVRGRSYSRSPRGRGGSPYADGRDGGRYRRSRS", "assay": "EMSA; LightShift Chemiluminescent EMSA Kit (Pierce 20158) per manufacturer; 100-fold unlabeled probe as competitor; buffer, salt, pH, temperature not stated", "conditions": "protein: recombinant; tags: His (pET30a, Ni column)"}
{"binder": "ACUCUUGGCGCAGCAAAAGGGAGAUGCGC (ssRNA)", "note": "[E3-2]", "values": [{"measurement": "binding result", "value": "binds"}]}
